Assay results published in patent US20210198672A1, “APTAMER FOR SCLEROSTIN AND USE THEREOF” (APTACURE THERAPEUTICS LIMITED, published 2021).
Changes are numbered by the printed parent chain.

B1: aptscl 5 (ssDNA)
DNA: CGTACGGTCGACGCTAGCTGTTGTTCATCGACTTGACGCACGTGGAGCTCGGATCC
B2: aptscl 8 (ssDNA)
DNA: CGTACGGTCGACGCTAGCCGGCGAAATTGCTACCACGTGGAGCTCGGATCC
B3: aptscl 12 (ssDNA)
DNA: CGTACGGTCGACGCTAGCCGTTGACTCGTTGCTACACGTGGAGCTCGGATCC
B4: aptscl 22 (ssDNA)
DNA: CGTACGGTCGACGCTAGCTGGGTTTATCGACTAGTTCCACGTGGAGCTCGGATCC
B5: aptscl 29 (ssDNA)
DNA: CGTACGGTCGACGCTAGCCGGAGACCTGAGGTTCACGTGGAGCTCGGATCC
B6: aptscl 32 (ssDNA)
DNA: CGTACGGTCGACGCTAGCTGTGTTAATCGCCGTACCTCCACGTGGAGCTCGGATCC
B7: aptscl 6 (ssDNA)
DNA: CGTACGGTCGACGCTAGCTGGAAGGGTGGGGGCGGGGGGTCCTCGCCTCGAACGTACGCACGTGGAGCTCGGATCC
B8: aptscl 9 (ssDNA)
DNA: CGTACGGTCGACGCTAGCTGGGGGTAGGGGGACCCTGGCTAGTTAGTCACCGTTTCGACACGTGGAGCTCGGATCC
B9: aptscl 51 (ssDNA)
DNA: CGTACGGTCGACGCTAGCTGGGGGTAGGGGGTCCTTGGCTACGGTGATTCGGATGTGACACGTGGAGCTCGGATCC
B10: aptscl 1 (ssDNA)
DNA: B1 DNA with G20C, C32T, T33C, T34C, G35T
B11: aptscl 2 (ssDNA)
DNA: CGTACGGTCGACGCTAGCCAGCCAAAGACAGAGATGCACGTGGAGCTCGGATCC
B12: aptscl 3 (ssDNA)
DNA: CGTACGGTCGACGCTAGCTGTTGTACATCGCCTTACGCACGTGGAGCTCGGATCC

Each binder was assayed against T1, sclerostin (SOST) (Homo sapiens, UniProt Q9BQB4 SEQ:1-190) (assay: ELONA; PBS, 1 mM MgCl2, RT). Conditions: tags: His6 (stated for the SELEX protein); ELONA used purified recombinant human sclerostin.
Procedure: (§1) An Enzyme-linked OligoNucleotide Assay (ELONA) was performed to determine the binding affinity of the aptamer candidates to sclerostin (Drolet, Moon-McDermott et al. 1996). Similarly, an Enzyme-linked ImmunoSorbent Assay (ELISA) was performed to determine the binding affinity of anti-sclerostin antibody to human sclerostin (Engvall and Perlmann 1971). 160 ng purified recombinant human sclerostin was coated to 96-well microtiter plate in 100 μl PBS by incubating at 4° C. overnight. The plate was then blocked with blocking buffer (PBS, 0.1% Tween 20 and 1% BSA) for 1 h at room temperature and washed with SELEX B&W buffer (PBS, 1 mM MgCl₂, 0.1% Tween 20 and 0.1% BSA) for 4 times. The aptamer candidates were denatured at 95° C. for 10 min and rapidly cooled on ice for 10 min before use. Appropriate concentrations of biotinylated aptamers/antibody were added into each well, then added SELEX B&W buffer to 100 μl and incubated for 45 min at room temperature with continuous gentle shaking. After binding, the plate was washed with SELEX B&W buffer for 4 times to remove non-specific and very weak binding, followed by washing with PBST+0.1% BSA for 4 times. 100 μl streptavidin-HRP/goat anti-human IgG Fc-HRP (1:10000 dilute into PBST+0.1% BSA) was added to each well and incubated for 30/60 min and washed with PBST+0.1% BSA for 4 times. 50 μl TMB was added to each well and incubated for 20 min. The reaction was stopped by adding 50 μl 2 M H₂SO₄. Absorbance at 450 nm was measured with microplate reader (Stoltenburg, Krafcikova et al. 2016). Data was analyzed with Origin software (OriginLab, Northampton, Mass.). A non-linear curve fitting model Hyperbl was used to plot is the binding curve. Equation of Hyperbl model is y=P1*x/(P2+x) and P2 is the Kd value.
(§2) Binding affinity and in vitro inhibition potency were performed using the same protocols in previous studies.

T1 sequence (Q9BQB4 24-213): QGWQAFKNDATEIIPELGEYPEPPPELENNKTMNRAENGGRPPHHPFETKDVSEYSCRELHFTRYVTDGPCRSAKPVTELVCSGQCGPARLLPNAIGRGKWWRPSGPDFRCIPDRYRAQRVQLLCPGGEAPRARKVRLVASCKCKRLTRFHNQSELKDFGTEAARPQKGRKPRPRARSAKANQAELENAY

| Binder | Kd |
| --- | --- |
| GTCGACGCTAGCTGTTGTACATCGCCTTACGCACGTGGAGCTCGGATCC (ssDNA) [aptscl 3-1] | 0.86 nM |
| CGTACGGTCGACGCTAGCTGTTGTACATCGCCTTACGCACGTGGAGCTC (ssDNA) [aptscl 3-2] | 0.52 nM |
| GCTAGCTGTTGTACATCGCCTTACGCACGTGGAGCTC (ssDNA) [aptscl 3-3] | 0.2 nM |
| GTCGACGCTAGCTGTTGTACATCGCCTTACGCACGTG (ssDNA) [aptscl 3-4] | 0.22 nM |
| GCTAGCTGTTGTACATCGCCTTACGCACGTG (ssDNA) [aptscl 3-5] | 0.22 nM |

Target: T1, sclerostin (SOST)
Experiment: ELONA; PBS, 1 mM MgCl2, RT
Conditions: tags: His6 (stated for the SELEX protein); ELONA used purified recombinant human sclerostin
Remark: another data set of the same source
Procedure: as §1

| Binder | Kd |
| --- | --- |
| CCCAGACGAGACACCTCATGCTTTTCCCCGGGGGAGGGGTAT (ssDNA) [aptscl 132] | 42.2 nM |
| B1 | 0.005 nM |
| B2 | 0.005 nM |
| B3 | 0.005 nM |
| B4 | 0.76 nM |
| B5 | 0.28 nM |
| B6 | 0.18 nM |
| B7 | 4.2 nM |
| B8 | 3.4 nM |
| B9 | 62.2 nM |
| B10 | 0.02 nM |
| B11 | 0.006 nM |

These binders were tested against T1, sclerostin (SOST) (assay: ELONA; PBS, 1 mM MgCl2, RT; Table 2 gives 0.02 nM). Conditions: tags: His6 (stated for the SELEX protein); ELONA used purified recombinant human sclerostin.
Procedure: as §1, with “100 μl streptavidin-HRP/goat anti-human IgG Fc-HRP (1:10000 dilute into PBST+0.1% BSA) was added to each well and incubated for 30/60 min and washed with PBST+0.1% BSA for 4 times. 50 μl TMB was added to each well and incubated for 20 min. The reaction was stopped by adding 50 μl 2 M H₂SO₄.” left out, “A non-linear curve fitting model Hyperbl was used to plot is the binding curve. Equation of Hyperbl model is y=P1*x/(P2+x) and P2 is the Kd value.” left out

| Binder | Kd |
| --- | --- |
| B12 | 0.04 nM |

These binders were tested against T1, sclerostin (SOST) (assay: ELONA; PBS, 1 mM MgCl2, 0.1% Tween 20, 0.1% BSA, RT). Conditions: tags: His6 (stated for the SELEX protein); ELONA used purified recombinant human sclerostin.
Procedure: as §1, with “100 μl streptavidin-HRP/goat anti-human IgG Fc-HRP (1:10000 dilute into PBST+0.1% BSA) was added to each well and incubated for 30/60 min and washed with PBST+0.1% BSA for 4 times. 50 μl TMB was added to each well and incubated for 20 min. The reaction was stopped by adding 50 μl 2 M H₂SO₄.” left out, “A non-linear curve fitting model Hyperbl was used to plot is the binding curve. Equation of Hyperbl model is y=P1*x/(P2+x) and P2 is the Kd value.” left out

| Binder | Kd |
| --- | --- |
| CGGGGTGTGGGTTCGTCGTTAGCTTGATTTGGCAGCTGCC (ssDNA) [aptscl 56] | 43.1 nM |

What follows are binders tested against T2, sclerostin (SOST), expressed from plasmid in MC3T3-E1 cells (UniProt Q9BQB4 SEQ:1-190) (assay: cell_activity; TOP-Wnt luciferase reporter; stated as inhibition potency). Conditions: not given.
T2 sequence (Q9BQB4 24-213): as the sequence (Q9BQB4 24-213) above

| Binder | EC50 |
| --- | --- |
| CGGGGTGTGGGTTCGTCGTTAGCTTGATTTGGCAGCTGCCC (ssDNA, 2'-OMe at first four (CGGG) and last four (GCCC) nucleotides; 3' idT) [modified aptscl 56] | 14 µg/mL |
| GCTAGCTGTTGTACATCGCCTTACGCACGTG (ssDNA, 2'-OMe at first four (GCTA) and last four (CGTG) nucleotides; 3' idT) [modified aptscl 3-5] | 11 µg/mL |

The binders below were run against T2, sclerostin (SOST), expressed from … (assay: cell_activity; TOP-Wnt luciferase reporter, MC3T3-E1). Conditions: not given.
Procedure: (§3) MC3T3-E1 cells were seeded in 24-well plates and cells were transfected with corresponding reporter plasmid (100 ng), Wnt3a plasmid (800 ng) and sclerostin plasmid (800 ng) as necessary using FuGENE HD transfection reagent (Promega) in the following day. 10 hours after transfection, culture medium was changed to fresh medium and cells were treated with aptamers/antibody. 24 hours after treatment, each well of cells was lysed with 100 μl passive lysis buffer and 20 μl was taken for analysis. The Luciferase Assay Reagent II and Stop & Glo Reagent were prepared and added automatically by SpectraMax i3x Multi-Mode Detection Platform (Molecular Device) according to the manufacturer's protocol (Promega) and data was analyzed accordingly (Grentzmann, Ingram et al. 1998, McNabb, Reed et al. 2005).
as §2

| Binder | EC50 |
| --- | --- |
| GCTAGCTGTTGTACATCGCCTTACGCACGTG (ssDNA) [aptscl 3-5] | 28.4 µg/mL |

Target: T1, sclerostin (SOST)
Experiment: ELONA; PBS, 1 mM MgCl2, RT
Conditions: tags: His6 (stated for the SELEX protein); ELONA used purified recombinant human sclerostin
Remark: another data set of the same source

| Binder | Kd |
| --- | --- |
| CGGGGTGTGGGTTCGTCGTTAGCTTGATTTGGCAGCTGCCC (ssDNA, 2'-OMe at first four (CGGG) and last four (GCCC) nucleotides; 3' idT) [modified aptscl 56] | 6.55 nM |
| GCTAGCTGTTGTACATCGCCTTACGCACGTG (ssDNA, 2'-OMe at first four (GCTA) and last four (CGTG) nucleotides; 3' idT) [modified aptscl 3-5] | 0.54 nM |

Target: T2, sclerostin (SOST), expressed from …
Experiment: cell_activity; TOP-Wnt luciferase reporter, MC3T3-E1
Conditions: not given
Remark: another data set of the same source
Procedure: as §3
The inhibition to sclerostin was dose dependent and the response was stable when the concentrations of aptscl 56 and 6 reached to 25 and 47.4 μg/ml, respectively. While treated with antibody, the response was still not stable with the concentration increasing to 20 mg/ml. Furthermore, the inhibition potency of aptscl 56, aptscl 6 and aptscl 3 was analyzed with non-linear curve fitting.

| Binder | EC50 |
| --- | --- |
| CGGGGTGTGGGTTCGTCGTTAGCTTGATTTGGCAGCTGCC (ssDNA) [aptscl 56] | 19.7 µg/mL |
| B7 | 36.8 µg/mL |
| B12 | 18.2 µg/mL |
